Target: T1, Gαo[P170R]^Gly92-GFP (human, UniProt P09471-1 1-354, P170R)
T1 construct: Pathogenic de novo variant found in two patients; also called Gαo[P170R]-GFP; P170R mutant; source: N2a cells, transfected, in lysate; not shown: GFP, internal (after residue 92), kept
Test: co-IP; N2a cells co-transfected with Gαo-GFP constructs and mRFP-Gβ1/mRFP-Gγ3 (1:1:1) or HA-RGS19 (1:1); cleared lysates (20 mM Tris-HCl pH 8.0, 1% Triton X-100, 10% glycerol in PBS) incubated with GST-tagged anti-GFP nanobody, then Glutathione Sepharose 4B beads overnight at 4 °C; Western blot for GFP, mRFP and/or HA; quantification normalized to the precipitated Gαo-GFP
Settings: partners not purified

T1 sequence (P09471 whole entry P170R): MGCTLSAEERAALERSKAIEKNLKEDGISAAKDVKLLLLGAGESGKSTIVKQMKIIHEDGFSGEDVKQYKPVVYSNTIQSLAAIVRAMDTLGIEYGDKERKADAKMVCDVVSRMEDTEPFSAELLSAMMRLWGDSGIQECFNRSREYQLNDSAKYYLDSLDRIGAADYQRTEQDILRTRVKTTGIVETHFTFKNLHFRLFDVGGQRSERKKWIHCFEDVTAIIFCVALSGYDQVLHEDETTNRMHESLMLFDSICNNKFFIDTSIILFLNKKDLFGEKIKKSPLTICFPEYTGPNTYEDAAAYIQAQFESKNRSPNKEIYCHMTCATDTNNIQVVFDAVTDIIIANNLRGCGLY

B1: 3xHA-RGS19 (natural protein, UniProt P49795 1-217, looked up)
chain: MPTPHEAEKQITGPEEADRPPSMSSHDTASPAAPSRNPCCLCWCCCCSCSWNQERRRAWQASRESKLQPLPSCEVCATPSPEEVQSWAQSFDKLMHSPAGRSVFRAFLRTEYSEENMLFWLACEELKAEANQHVVDEKARLIYEDYVSILSPKEVSLDSRVREGINKKMQEPSAHTFDDAQLQIYTLMHRDSYPRFLSSPTYRALLLQGPSQSSSEA
notes: RGS19 (regulator of G-protein signaling 19); also called 3×HA-RGS19; RGS19 (tagged with 3 × HA); source: N2a cells, transfected, in lysate
  fold reduction of co-precipitated RGS19 against wild-type Gαo-GFP: > 2 fold

— article PMC10605901, “Clinical Cases and the Molecular Profiling of a Novel Childhood Encephalopathy-Causing GNAO1 Mutation P170R” (Cells, 2023)
